From patent EP1486506A1 (INSTITUT NATIONAL DE LA SANTE ET DE LA RECHERCHE MEDICALE …, dated 2004)

Target: T1, LexA alone (UniProt P0A7C2 1-202)
T1 construct: also called only the LexA part of the fusion protein
T1 sequence: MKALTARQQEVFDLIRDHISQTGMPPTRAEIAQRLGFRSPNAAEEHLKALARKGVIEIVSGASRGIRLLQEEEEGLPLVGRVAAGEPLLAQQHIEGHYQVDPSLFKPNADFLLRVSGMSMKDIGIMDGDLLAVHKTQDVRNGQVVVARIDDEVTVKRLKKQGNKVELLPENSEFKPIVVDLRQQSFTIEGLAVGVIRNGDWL
Experiment: yeast two-hybrid GFP reporter, flow cytometry (control, Fig. 2E)

B1: VP16-HIPK2/PEST (other)
chain: HVMRQQPTSTTSSRKSKQHQSSVRNVSTCEVTSSQAISSPQRSKRVKENTPPRCAMVHSSPACSTSVTCGWGDVASSTTRERQRQTIVIPDTPSPTVSVITISSDTDEEEEQKHAPTSTVSKQRKNVISCVTVHDSP
notes: range 789-925
**Q.** Does B1 bind?
**A.** no binding
